Values quoted from earlier work in paper PMC3057930.

Molecular target: CaMKIIp (UniProt Q9UQM7)
Sequence (Q9UQM7 293-312): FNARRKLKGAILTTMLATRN

(Ca2+)2-CaM76-148 76-148 (from UniProt P0DP29)
Kd: 950 nM
